Assay results reported in article PMC9462884, “Tensin3 interaction with talin drives the formation of fibronectin-associated fibrillar adhesions” (The Journal of Cell Biology, 2022).

Biological target: T1, talin R11 (recombinant wild-type mouse talin1 fragment R11) (mouse, UniProt P26039 1974-2140)
T1 construct: talin1, mouse, R11 rod domain, residues 1,974–2,140; 15N-labelled for the NMR experiments; also called talin R11 domain
Test: ITC; 80 µM R11 in the cell, 1.2 mM peptide in the syringe; 20 mM sodium phosphate pH 6.5, 50 mM NaCl, 0.5 mM TCEP, 25°C; single-site binding model
Conditions: both partners purified

T1 sequence (P26039 1974-2140): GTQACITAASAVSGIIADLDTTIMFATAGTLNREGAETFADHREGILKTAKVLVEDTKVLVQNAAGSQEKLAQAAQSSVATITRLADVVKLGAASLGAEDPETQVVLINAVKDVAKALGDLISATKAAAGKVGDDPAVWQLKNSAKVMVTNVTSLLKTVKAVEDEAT

- Kd: 17 µM
- dH: 4.8 kcal/mol
B1: tensin3 H1 peptide (peptide)
chain: TLDIDQSIEQLNRLILELDPT
modifications: synthetic peptide; terminal capping not stated. Limits conflict in the text: methods give 692-712 (used here, from the peptide purchase description and close to the predicted helix 690-710), results …
